Experimental data as given in publication PMC10281526, “Polydom/SVEP1 binds to Tie1 and promotes migration of lymphatic endothelial cells” (The Journal of Cell Biology, 2023).

B1: recombinant Tie1 extracellular domain, Fc fusion protein [not stated] / GST fusion protein of the 20th CCP domain of Polydom [mouse] (parent complex)
chain 1: AVDLTLLANLRLTDPQRFFLTCVSGEAGAGRGSDAWGPPLLLEKDDRIVRTPPGPPLRLARNGSHQVTLRGFSKPSDLVGVFSCVGGAGARRTRVIYVHNSPGAHLLPDKVTHTVNKGDTAVLSARVHKEKQTDVIWKSNGSYFYTLDWHEAQDGRFLLQLPNVQPPSSGIYSATYLEASPLGSAFFRLIVRGCGAGRWGPGCTKECPGCLHGGVCHDHDGECVCPPGFTGTRCEQACREGRFGQSCQEQCPGISGCRGLTFCLPDPYGCSCGSGWRGSQCQEACAPGHFGADCRLQCQCQNGGTCDRFSGCVCPSGWHGVHCEKSDRIPQILNMASELEFNLETMPRINCAAAGNPFPVRGSIELRKPDGTVLLSTKAIVEPEKTTAEFEVPRLVLADSGFWECRVSTSGGQDSRRFKVNVKVPPVPLAAPRLLTKQSRQLVVSPLVSFSGDGPISTVRLHYRPQDSTMDWSTIVVDPSENVTLMNLRPKTGYSVRVQLSRPGEGGEGAWGPPTLMTTDCPEPLLQPWLEGWHVEGTDRLRVSWSLPLVPGPLVGDGFLLRLWDGTRGQERRENVSSPQARTALLTGLTPGTHYQLDVQLYHCTLLGPASPPAHVLLPPSGPPAPRHLHAQALSDSEIQLTWKHPEALPGPISKYVVEVQVAGGAGDPLWIDVDRPEETSTIIRGLNASTRYLFRMRASIQGLGDWSNTVEESTLGNGLQAEGPVQESRAAEEGLDQ
chain 2: IHCSDPQPIENGFVEGADYRYGAMIIYSCFPGFQVLGHAMQTCEESGWSSSSPTCVP

Variants of: B1
Assay: solid-phase binding assay; parent: 1.25; read off a plot

| Variant | response |
| --- | --- |
| chain 2 E15A | ~0.04 A490 |
| chain 2 A17G | ~0.93 A490 |
| chain 2 G22A | ~1.1 A490 |
| chain 2 I26A | ~1.3 A490 |
| chain 2 G16A | ~0.07 A490 |
| chain 2 A23G | ~1.4 A490 |
| chain 2 D18A | ~1.1 A490 |
| chain 2 I25A | ~0.6 A490 |

More lines, now with the values ahead:

| response | Variant |
| --- | --- |
| ~1.4 A490 | chain 2 Y21A |
| ~0.53 A490 | chain 2 V14A |
| ~1.3 A490 | chain 2 R20A |
| ~1.4 A490 | chain 2 Y19A |
| ~1.2 A490 | chain 2 M24A |
